Data on 2 molecules can be found in patent US20130266566A1.

For test [1], the target named is Antibody 16 IgG1, not germlined. Briefly: competition binding assay: Antibody 16 IgG adsorbed to the plate, biotinylated active human PAI-1 plus a titration of the unlabelled competitor, streptavidin-Europium detection.
Test [2] has as its target active human PAI-1, recombinant, wild-type, non-glycosylated (E. coli) (human) (UniProt P05121). Briefly: cell-based or functional assay.
The target of test [3] is T1, rat PAI-1 (rat) (UniProt P20961).
T1 sequence: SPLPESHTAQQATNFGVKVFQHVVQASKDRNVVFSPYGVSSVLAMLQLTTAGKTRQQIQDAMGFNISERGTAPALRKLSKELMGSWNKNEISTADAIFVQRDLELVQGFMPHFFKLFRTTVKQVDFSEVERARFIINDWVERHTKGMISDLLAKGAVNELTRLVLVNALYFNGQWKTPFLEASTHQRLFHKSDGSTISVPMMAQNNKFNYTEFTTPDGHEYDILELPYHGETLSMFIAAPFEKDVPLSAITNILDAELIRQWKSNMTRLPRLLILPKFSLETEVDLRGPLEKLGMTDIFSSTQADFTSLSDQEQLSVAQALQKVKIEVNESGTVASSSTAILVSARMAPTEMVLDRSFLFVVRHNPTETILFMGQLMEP
Briefly: cell-based or functional assay.

active human PAI-1, recombinant, wild-type, non-glycosylated (E. coli) (human), sequence (P05121 24-402): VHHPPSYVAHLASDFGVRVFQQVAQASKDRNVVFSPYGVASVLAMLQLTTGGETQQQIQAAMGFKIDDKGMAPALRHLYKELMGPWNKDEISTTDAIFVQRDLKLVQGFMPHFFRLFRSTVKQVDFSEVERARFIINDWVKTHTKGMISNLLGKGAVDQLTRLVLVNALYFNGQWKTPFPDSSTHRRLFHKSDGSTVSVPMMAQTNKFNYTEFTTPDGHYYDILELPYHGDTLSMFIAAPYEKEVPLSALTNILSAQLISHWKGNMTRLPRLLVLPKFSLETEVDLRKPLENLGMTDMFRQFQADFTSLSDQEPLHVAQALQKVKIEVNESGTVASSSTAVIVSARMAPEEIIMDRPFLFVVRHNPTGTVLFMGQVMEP

B1: mouse PAI-1 (protein)
chain: ALPLRESHTAHQATDFGVKVFQQVVQASKDRNVVFSPYGVSSVLAMLQMTTAGKTRRQIQDAMGFKVNEKGTAHALRQLSKELMGPWNKNEISTADAIFVQRDLELVQGFMPHFFKLFQTMVKQVDFSEVERARFIINDWVERHTKGMINDLLAKGAVDELTRLVLVNALYFSGQWKTPFLEASTHQRLFHKSDGSTVSVPMMAQSNKFNYTEFTTPDGLEYDVVELPYQGDTLSMFIAAPFEKDVHLSALTNILDAELIRQWKGNMTRLPRLLILPKFSLETEVDLRGPLEKLGMPDMFSATLADFTSLSDQEQLSVAQALQKVRIEVNESGTVASSSTAFVISARMAPTEMVIDRSFLFVVRHNPTETILFMGQVMES
B1: in test [1], the IC50 (read off the curve) is 6 nM.

B2: Antibody 18 scFv (scFv, V domains shown, part only)
VH: QVQLQQSGAEVKKPGSSVKVSCKASGGTFSSYAISWVRQAPGQGLEWMGGIIPTFGTANYAQKLQGRVTITADESTSTAYMELSGLRSEDTAVYYCAREKRQWLEGHFDYWGRGTPVTVSS
VL: DIQMTQSPSFLSASIGDRVTITCRASEGIYHALAWYQQKPGKAPKLLIYRASSLASGAPSRFSGSGSGTDFTLTISSLQPDDFATYYCQQYSNYPLTFGGGTKLEIK
modifications: linker not stated
On to B2, for which, in test [2], the Chromogenic (IC50 in nM) human was found to be 1.3 nM. Moreover, in test [3], the Chromogenic (IC50 in nM) rat worked out at 238 nM; the Chromogenic IC50 ratio rat/human came out at 190 fold; the HT-1080 Exo PAI-1 (IC50 in nM) rat was 37 nM; the IC50 in the rat chromogenic assay, fold higher than in the human assay was found to be 180 fold.
